Patent publication US20090137485A1, “Antigens Targeted by Pathogenic T Cells in Type 1 Diabetes and Uses Thereof” (priority 2005, published 2009)

Key:
HLA-A2 molecule = HLA-A2 molecule (Homo sapiens, UniProt P04439, D140Y/D185E/D98H/E176V/E277Q/G131W/G231S/I119V/I121R/I166T/I218V/L300P/L318F/N151K/N90K/P208A/P217A/Q86G/Q94H/R138H/R169H/T345S); details: from the literature (Panagiotopoulos et al., 2003; Regner et al., 1996); cited from earlier work
[1] = biological target: T1, human HLA-A2 MHC class I molecule (HLA-A*0201) on T2 cells (human); assay: peptide library screen; HLA-A2 restriction on T2 cells
T1 construct: Surface HLA-A2 was read with FITC anti-HLA-A2 mAb BB7.2; also called HLA-A2.1

[2] = biological target: T1, human HLA-A2 MHC class I molecule …; assay: descriptor in the legend of an IFN-gamma ELISPOT figure (T2 cells as APC)

binding result [2]	Molecule	also measured
	KLQVFLIVL [PreproIAPP5-13]	binding to HLA-A2 (HLA-A2 molecule): HLA-A2-binding
	FGIDLLWSV (also called murine IGRP 228-236) [mIGRP228-236 (FGIDLLWSV)]	binding result [1]: binds
binds	VLFGLGFAI (also called murine IGRP 265-273) [mIGRP265-273 (VLFGLGFAI)]	
binds	ALIPYCVHM (also called murine IGRP 337-345) [mIGRP337-345 (ALIPYCVHM)]	
